What was measured:
[1] = molecular target: T1, α4β2 (Homo sapiens, UniProt P17787+P43681); experiment: Ion channel panel (IonWorks Barracuda): α4β2; format: cell-based; conditions: 100% = no change, <100% = inhibition
T1 construct: host or cells: HEK293 or CHO
How it was run: (§1)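 Transfected HEK293 or CHO cells were exposed for at least 5 min to peptides at 200 nM and 20 μM final, tested in duplicate, in HEPES-buffered physiological saline. Activation was taken as peptide-plus-agonist current over control current ×100, and inhibition as 1 minus that ratio ×100. Each channel's control was its own reference compound.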

[2] = molecular target: T2, Nav1.7 (Homo sapiens, UniProt Q15858); experiment: cell-based; format: cell-based; conditions: 100% = no change; for Activity of Nav1.7 with peptide, expressed as a percentage of the reference compound: peptide at 0.2 μM; for Activity of Nav1.7 with peptide (percentage of the reference compound): peptide at 20 μM
T2 construct: host or cells: HEK293 or CHO
T2 sequence (Q15858 whole entry): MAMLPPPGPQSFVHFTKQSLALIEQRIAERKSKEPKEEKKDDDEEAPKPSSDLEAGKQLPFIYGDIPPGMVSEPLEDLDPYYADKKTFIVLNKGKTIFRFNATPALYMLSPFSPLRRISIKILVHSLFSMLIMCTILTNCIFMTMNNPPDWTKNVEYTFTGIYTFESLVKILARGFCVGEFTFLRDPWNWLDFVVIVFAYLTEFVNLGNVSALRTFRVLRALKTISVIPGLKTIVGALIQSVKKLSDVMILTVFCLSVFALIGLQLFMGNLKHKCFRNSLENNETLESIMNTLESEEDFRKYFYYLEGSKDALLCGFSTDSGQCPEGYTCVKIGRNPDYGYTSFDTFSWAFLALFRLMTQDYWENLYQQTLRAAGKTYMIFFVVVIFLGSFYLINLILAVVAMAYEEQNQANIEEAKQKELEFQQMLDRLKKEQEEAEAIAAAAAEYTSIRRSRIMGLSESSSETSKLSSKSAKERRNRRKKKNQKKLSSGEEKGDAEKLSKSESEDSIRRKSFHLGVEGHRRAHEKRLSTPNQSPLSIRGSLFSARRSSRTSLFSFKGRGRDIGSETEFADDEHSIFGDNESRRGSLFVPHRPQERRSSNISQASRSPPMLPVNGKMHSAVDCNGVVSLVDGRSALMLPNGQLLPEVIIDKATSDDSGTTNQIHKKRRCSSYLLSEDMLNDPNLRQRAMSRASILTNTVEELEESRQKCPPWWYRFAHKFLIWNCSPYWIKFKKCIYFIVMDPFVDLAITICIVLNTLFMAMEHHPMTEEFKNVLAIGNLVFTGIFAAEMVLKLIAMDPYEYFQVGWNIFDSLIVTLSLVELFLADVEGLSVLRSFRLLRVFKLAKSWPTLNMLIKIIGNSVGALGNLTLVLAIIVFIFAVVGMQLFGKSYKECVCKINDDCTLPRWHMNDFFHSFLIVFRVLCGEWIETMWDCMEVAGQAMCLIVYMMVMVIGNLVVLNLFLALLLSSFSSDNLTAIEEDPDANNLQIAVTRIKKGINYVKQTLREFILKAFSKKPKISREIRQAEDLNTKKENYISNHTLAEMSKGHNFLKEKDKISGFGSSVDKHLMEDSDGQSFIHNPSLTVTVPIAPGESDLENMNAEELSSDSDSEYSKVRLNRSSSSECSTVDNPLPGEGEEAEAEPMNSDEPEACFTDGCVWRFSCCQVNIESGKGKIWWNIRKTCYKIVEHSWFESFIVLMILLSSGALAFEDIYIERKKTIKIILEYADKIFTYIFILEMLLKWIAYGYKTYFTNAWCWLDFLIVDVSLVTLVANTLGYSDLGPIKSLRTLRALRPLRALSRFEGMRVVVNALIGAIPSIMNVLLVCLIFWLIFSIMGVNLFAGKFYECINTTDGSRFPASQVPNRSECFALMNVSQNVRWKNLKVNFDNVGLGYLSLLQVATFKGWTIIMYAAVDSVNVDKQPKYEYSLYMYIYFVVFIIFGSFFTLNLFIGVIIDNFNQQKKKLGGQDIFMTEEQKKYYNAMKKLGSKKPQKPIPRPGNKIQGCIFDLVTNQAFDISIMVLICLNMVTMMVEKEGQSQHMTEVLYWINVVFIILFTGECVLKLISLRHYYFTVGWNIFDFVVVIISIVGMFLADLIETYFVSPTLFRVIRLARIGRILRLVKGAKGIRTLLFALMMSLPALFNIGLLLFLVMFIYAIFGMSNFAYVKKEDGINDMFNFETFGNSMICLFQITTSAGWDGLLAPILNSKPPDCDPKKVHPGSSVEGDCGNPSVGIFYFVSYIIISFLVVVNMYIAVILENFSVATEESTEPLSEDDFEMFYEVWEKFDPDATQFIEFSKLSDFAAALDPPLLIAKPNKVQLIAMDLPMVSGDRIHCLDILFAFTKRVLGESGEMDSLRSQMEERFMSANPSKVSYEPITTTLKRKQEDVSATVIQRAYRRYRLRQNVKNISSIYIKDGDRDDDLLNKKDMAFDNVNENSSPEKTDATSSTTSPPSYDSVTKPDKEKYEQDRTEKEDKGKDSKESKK

[3] = molecular target: T3, TRPA1 (Homo sapiens, UniProt O75762); experiment: Ion channel panel (IonWorks Barracuda): TRPA1; format: cell-based; conditions: 100% = no change, <100% = inhibition
T3 construct: host or cells: HEK293 or CHO
T3 sequence (O75762 whole entry): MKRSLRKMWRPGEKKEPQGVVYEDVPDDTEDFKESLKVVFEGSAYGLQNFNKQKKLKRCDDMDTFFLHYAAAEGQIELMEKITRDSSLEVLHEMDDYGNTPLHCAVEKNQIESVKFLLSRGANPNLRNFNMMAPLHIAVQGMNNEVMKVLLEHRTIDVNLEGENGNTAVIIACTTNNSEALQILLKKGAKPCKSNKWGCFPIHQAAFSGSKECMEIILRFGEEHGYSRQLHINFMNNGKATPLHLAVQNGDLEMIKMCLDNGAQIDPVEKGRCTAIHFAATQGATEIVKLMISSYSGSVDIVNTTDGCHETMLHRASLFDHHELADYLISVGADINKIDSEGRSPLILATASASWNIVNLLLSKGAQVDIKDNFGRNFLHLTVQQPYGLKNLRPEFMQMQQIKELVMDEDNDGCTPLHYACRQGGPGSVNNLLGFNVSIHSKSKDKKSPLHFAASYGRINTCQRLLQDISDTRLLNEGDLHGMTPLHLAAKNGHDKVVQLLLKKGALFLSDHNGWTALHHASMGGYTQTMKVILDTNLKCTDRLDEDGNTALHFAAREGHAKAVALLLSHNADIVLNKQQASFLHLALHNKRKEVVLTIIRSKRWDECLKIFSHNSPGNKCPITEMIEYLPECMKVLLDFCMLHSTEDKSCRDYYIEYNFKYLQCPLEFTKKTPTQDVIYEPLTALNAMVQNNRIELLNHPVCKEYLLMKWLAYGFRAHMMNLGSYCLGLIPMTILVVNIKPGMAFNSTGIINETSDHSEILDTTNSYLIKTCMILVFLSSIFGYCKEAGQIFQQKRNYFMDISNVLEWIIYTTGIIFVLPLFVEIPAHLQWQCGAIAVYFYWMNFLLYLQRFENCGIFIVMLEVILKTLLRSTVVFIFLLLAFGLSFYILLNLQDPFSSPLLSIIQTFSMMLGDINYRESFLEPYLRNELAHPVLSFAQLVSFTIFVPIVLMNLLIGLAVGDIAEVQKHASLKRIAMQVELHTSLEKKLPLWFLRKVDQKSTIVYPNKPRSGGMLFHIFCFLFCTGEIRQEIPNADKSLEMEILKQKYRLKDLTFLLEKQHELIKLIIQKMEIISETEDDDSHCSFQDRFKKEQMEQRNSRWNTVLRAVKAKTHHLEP
How it was run: as §1

[4] = molecular target: Nav1.5 (Homo sapiens, UniProt Q14524); experiment: in vitro; conditions: 100% = no change; for Activity of Nav1.5 with peptide, expressed as a percentage of the reference compound: peptide at 0.2 μM; for Activity of Nav1.5 with peptide (percentage of the reference compound): peptide at 20 μM
Sequence of Nav1.5 (Q14524 whole entry): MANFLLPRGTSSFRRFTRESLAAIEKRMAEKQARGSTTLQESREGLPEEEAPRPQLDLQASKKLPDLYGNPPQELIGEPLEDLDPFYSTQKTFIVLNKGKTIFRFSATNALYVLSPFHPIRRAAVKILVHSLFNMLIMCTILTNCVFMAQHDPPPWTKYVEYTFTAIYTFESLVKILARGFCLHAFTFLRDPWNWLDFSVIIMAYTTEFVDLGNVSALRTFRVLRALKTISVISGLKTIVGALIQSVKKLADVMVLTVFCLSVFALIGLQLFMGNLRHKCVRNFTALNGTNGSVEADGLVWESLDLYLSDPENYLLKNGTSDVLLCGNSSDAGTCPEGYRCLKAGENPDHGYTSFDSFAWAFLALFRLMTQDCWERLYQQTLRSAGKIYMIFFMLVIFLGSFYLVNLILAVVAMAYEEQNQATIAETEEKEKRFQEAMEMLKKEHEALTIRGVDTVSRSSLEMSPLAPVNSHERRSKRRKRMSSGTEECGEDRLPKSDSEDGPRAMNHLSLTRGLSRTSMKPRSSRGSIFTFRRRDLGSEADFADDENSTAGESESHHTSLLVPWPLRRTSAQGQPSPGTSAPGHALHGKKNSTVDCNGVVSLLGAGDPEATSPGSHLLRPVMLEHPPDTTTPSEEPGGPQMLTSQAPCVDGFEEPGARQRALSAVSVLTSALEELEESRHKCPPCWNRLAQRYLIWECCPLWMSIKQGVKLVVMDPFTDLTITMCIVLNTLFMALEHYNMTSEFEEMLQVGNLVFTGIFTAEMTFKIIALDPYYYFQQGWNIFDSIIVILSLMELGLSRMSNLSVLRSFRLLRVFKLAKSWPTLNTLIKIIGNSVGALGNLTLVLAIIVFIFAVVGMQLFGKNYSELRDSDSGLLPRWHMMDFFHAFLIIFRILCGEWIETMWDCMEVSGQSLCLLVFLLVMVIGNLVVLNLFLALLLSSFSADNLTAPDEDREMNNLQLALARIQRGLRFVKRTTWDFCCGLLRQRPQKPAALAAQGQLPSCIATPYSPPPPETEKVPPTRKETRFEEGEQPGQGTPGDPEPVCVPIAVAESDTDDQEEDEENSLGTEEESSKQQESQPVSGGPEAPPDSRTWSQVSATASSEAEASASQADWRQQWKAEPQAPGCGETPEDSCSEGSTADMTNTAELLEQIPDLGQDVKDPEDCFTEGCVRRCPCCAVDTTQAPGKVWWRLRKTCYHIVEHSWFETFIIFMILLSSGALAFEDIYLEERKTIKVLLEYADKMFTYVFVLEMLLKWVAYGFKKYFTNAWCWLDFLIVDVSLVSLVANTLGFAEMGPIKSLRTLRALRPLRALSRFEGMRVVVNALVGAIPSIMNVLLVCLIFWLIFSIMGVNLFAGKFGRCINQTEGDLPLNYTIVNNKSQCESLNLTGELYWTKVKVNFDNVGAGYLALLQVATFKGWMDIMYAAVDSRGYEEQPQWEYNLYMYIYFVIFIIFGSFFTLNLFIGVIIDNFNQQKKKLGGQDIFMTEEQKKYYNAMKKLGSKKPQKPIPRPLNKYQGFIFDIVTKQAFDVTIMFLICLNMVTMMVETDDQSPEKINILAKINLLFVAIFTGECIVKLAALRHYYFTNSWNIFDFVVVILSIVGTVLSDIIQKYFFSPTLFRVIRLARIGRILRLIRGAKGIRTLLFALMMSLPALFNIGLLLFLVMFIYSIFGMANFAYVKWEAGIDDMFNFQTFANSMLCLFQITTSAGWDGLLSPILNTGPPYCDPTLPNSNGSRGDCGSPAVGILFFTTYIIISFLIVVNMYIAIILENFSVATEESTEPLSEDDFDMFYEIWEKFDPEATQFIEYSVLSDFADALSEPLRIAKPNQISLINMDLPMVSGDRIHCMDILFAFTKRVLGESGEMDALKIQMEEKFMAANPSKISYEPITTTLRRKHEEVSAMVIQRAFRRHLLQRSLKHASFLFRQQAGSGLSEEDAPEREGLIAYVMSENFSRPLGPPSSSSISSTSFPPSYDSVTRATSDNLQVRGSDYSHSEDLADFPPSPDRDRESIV
How it was run: as §1

[5] = molecular target: hERG (Homo sapiens, UniProt Q12809); experiment: in vitro; conditions: 100% = no change, <100% = inhibition
How it was run: as §1

[6] = molecular target: T4, NR2A (Homo sapiens, UniProt Q12879); experiment: Ion channel panel (IonWorks Barracuda): NR2A; format: cell-based; conditions: 100% = no change, <100% = inhibition
T4 construct: host or cells: HEK293 or CHO
How it was run: as §1

[7] = molecular target: T5, Kv1.3 (Homo sapiens, UniProt P22001); experiment: cell-based; format: cell-based; conditions: 100% = no change, <100% = inhibition
T5 construct: host or cells: HEK293 or CHO
How it was run: as §1

[8] = molecular target: T6, Kv1.1 (Homo sapiens, UniProt Q09470); experiment: cell-based; format: cell-based; conditions: 100% = no change, <100% = inhibition
T6 construct: host or cells: HEK293 or CHO
How it was run: as §1

[9] = molecular target: T7, Kv1.2 (Homo sapiens, UniProt P16389); experiment: cell-based; format: cell-based; conditions: 100% = no change, <100% = inhibition
T7 construct: host or cells: HEK293 or CHO
How it was run: as §1

[10] = molecular target: T8, Kir2.1 (Homo sapiens, UniProt P63252); experiment: Ion channel panel (IonWorks Barracuda): Kir2.1; format: cell-based; conditions: 100% = no change, <100% = inhibition
T8 construct: host or cells: HEK293 or CHO
How it was run: as §1

[11] = molecular target: T9, NR2B (Homo sapiens, UniProt Q13224); experiment: Ion channel panel (IonWorks Barracuda): NR2B; format: cell-based; conditions: 100% = no change, <100% = inhibition
T9 construct: host or cells: HEK293 or CHO
How it was run: as §1

[12] = tested on: GABA; experiment: Ion channel panel (IonWorks Barracuda): GABA; format: cell-based; conditions: 100% = no change, <100% = inhibition
How it was run: as §1

[13] = molecular target: T10, TRPV1 (Homo sapiens, UniProt Q8NER1); experiment: Ion channel panel (IonWorks Barracuda): TRPV1; format: cell-based; conditions: 100% = no change, <100% = inhibition
T10 construct: host or cells: HEK293 or CHO
How it was run: as §1

[14] = molecular target: T11, α3β4 (Homo sapiens, UniProt P30926+P32297); experiment: Ion channel panel (IonWorks Barracuda): α3β4; format: cell-based; conditions: 100% = no change, <100% = inhibition
T11 construct: host or cells: HEK293 or CHO
How it was run: as §1

[15] = molecular target: T12, 5HT3a (Homo sapiens, UniProt P46098); experiment: Ion channel panel (IonWorks Barracuda): 5HT3a; format: cell-based
T12 construct: host or cells: HEK293 or CHO
T12 sequence (P46098 whole entry, looked up): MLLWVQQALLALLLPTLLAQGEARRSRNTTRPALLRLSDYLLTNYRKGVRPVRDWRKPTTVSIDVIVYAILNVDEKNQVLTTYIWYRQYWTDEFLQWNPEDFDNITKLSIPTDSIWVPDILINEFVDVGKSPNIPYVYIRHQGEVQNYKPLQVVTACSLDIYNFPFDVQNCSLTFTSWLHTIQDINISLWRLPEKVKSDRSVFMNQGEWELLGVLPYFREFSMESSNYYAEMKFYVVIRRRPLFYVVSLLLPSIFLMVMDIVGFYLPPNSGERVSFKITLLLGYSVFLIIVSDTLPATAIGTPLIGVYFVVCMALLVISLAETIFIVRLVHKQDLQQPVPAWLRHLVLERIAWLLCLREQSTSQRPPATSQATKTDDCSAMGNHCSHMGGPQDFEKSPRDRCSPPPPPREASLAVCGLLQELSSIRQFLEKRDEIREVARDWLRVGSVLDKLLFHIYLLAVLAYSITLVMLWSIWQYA
How it was run: as §1

[16] = molecular target: T13, Cav2.1 (Homo sapiens, UniProt O00555); experiment: cell-based; conditions: 100% = no change, <100% = inhibition
T13 construct: host or cells: HEK293 or CHO
How it was run: as §1

[17] = molecular target: T14, Cav2.2 (Homo sapiens, UniProt Q00975); experiment: cell-based; conditions: 100% = no change, <100% = inhibition
T14 construct: host or cells: HEK293 or CHO
How it was run: as §1

[18] = molecular target: T15, Kv2.1 (Homo sapiens, UniProt Q14721); experiment: cell-based; conditions: 100% = no change, <100% = inhibition
T15 construct: host or cells: HEK293 or CHO
How it was run: as §1

[19] = first of two Nav1.7 columns (probably TP1)
[20] = second of two Nav1.7 columns (probably TP2)
[21] = first of two Nav1.5 columns (probably TP1)
[22] = second of two Nav1.5 columns (probably TP2)

## 36 (GSAQEPVKGPVSTKPGSCPIILIRCAMLNPPNRCLKDTDCPGIKKCCEGSCGMACFVPQ) [compound 36]
[1]; peptide at 0.2 μM
  Activity of a4b2 with peptide, expressed as a percentage of the reference compound: 62%
[1]; peptide at 20 μM
  Activity of a4b2 with peptide (percentage of the reference compound): 57%
[2]; [19]
  Activity of Nav1.7 with peptide, expressed as a percentage of the reference compound: 108%
  Activity of Nav1.7 with peptide (percentage of the reference compound): 91%
[2]; [20]
  Activity of Nav1.7 with peptide, expressed as a percentage of the reference compound: 118%
  Activity of Nav1.7 with peptide (percentage of the reference compound): 71%
[3]; peptide at 0.2 μM
  Activity of TRPA1 with peptide, expressed as a percentage of the reference compound: 106%
[3]; peptide at 20 μM
  Activity of TRPA1 with peptide (percentage of the reference compound): 92%
[4]; [21]
  Activity of Nav1.5 with peptide, expressed as a percentage of the reference compound: 110%
  Activity of Nav1.5 with peptide (percentage of the reference compound): 107%
[4]; [22]
  Activity of Nav1.5 with peptide, expressed as a percentage of the reference compound: 109%
  Activity of Nav1.5 with peptide (percentage of the reference compound): 112%
[5]; peptide at 0.2 μM
  Activity of hERG with peptide, expressed as a percentage of the reference compound: 84%
[5]; peptide at 20 μM
  Activity of hERG with peptide (percentage of the reference compound): 65%
[6]; peptide at 0.2 μM
  Activity of NR2A with peptide, expressed as a percentage of the reference compound: 115%
[6]; peptide at 20 μM
  Activity of NR2A with peptide (percentage of the reference compound): 103%
[7]; peptide at 0.2 μM
  Activity of Kv1.3 with peptide, expressed as a percentage of the reference compound: 96%
[7]; peptide at 20 μM
  Activity of Kv1.3 with peptide (percentage of the reference compound): 93%
[8]; peptide at 0.2 μM
  Activity of Kv1.1 with peptide, expressed as a percentage of the reference compound: 82%
[8]; peptide at 20 μM
  Activity of Kv1.1 with peptide (percentage of the reference compound): 101%
[9]; peptide at 0.2 μM
  Activity of Kv1.2 with peptide, expressed as a percentage of the reference compound: 91%
[9]; peptide at 20 μM
  Activity of Kv1.2 with peptide (percentage of the reference compound): 87%
[10]; peptide at 0.2 μM
  Activity of Kir2.1 with peptide, expressed as a percentage of the reference compound: 108%
[10]; peptide at 20 μM
  Activity of Kir2.1 with peptide (percentage of the reference compound): 91%
[11]; peptide at 0.2 μM
  Activity of NR2B with peptide, expressed as a percentage of the reference compound: 109%
[11]; peptide at 20 μM
  Activity of NR2B with peptide (percentage of the reference compound): 96%
[12]; peptide at 0.2 μM
  Activity of GABA with peptide, expressed as a percentage of the reference compound: 118%
[12]; peptide at 20 μM
  Activity of GABA with peptide (percentage of the reference compound): 106%
[13]; peptide at 0.2 μM
  Activity of TRPV1 with peptide, expressed as a percentage of the reference compound: 103%
[13]; peptide at 20 μM
  Activity of TRPV1 with peptide (percentage of the reference compound): 69%
[14]; peptide at 0.2 μM
  Activity of a3b4 with peptide, expressed as a percentage of the reference compound: 95%
[14]; peptide at 20 μM
  Activity of a3b4 with peptide (percentage of the reference compound): 87%
[15]
  Activity of 5HT3a with peptide (percentage of the reference compound): 83%
  Activity of 5HT3a with peptide, expressed as a percentage of the reference compound: 81%
[16]; peptide at 0.2 μM
  Activity of Cav2.1 with peptide, expressed as a percentage of the reference compound: 96%
[16]; peptide at 20 μM
  Activity of Cav2.1 with peptide (percentage of the reference compound): 102%
[17]; peptide at 0.2 μM
  Activity of Cav2.2 with peptide, expressed as a percentage of the reference compound: 114%
[17]; peptide at 20 μM
  Activity of Cav2.2 with peptide (percentage of the reference compound): 87%
[18]; peptide at 0.2 μM
  Activity of Kv2.1 with peptide, expressed as a percentage of the reference compound: 104%
[18]; peptide at 20 μM
  Activity of Kv2.1 with peptide (percentage of the reference compound): 92%
